{"source": "paper PMC6582352", "biological_target": "CbAgo (Clostridium butyricum, UniProt P0DYD1 1-748)", "assay": "single-molecule TIRM, immobilized CbAgo", "data": [{"binder": "CCATCTGTCTTA (ssDNA, 5'-phosphate)", "note": "[siDNA 12 nt (SM013)]", "values": [{"measurement": "binding result", "value": "binds"}]}]}
